Data set [1] concerns the target Asp85 (UniProt position 98, WARYADWLFTA). Briefly: UV-vis. The conditions noted are these: pH adjusted with 0.1 M HCl or NaOH, Retinal-reconstituted chromoprotein in purple membrane, ground state. Light/dark adaptation state during the titration is not stated.
Data set [2] has as its target Asp85 (UniProt position 98, WARYADWLFTT). Briefly: UV-vis. To be noted: pH adjusted with 0.1 M HCl or NaOH, Retinal-reconstituted chromoprotein in purple membrane, ground state. Light/dark adaptation state during the titration is not stated.
[3] abbreviates: 150 mM KCl, none stated (Methods say non-buffered).
Setting [4] is: Deionised water with no added salt, apart from the HCl/NaOH titrant, none (non-buffered).

From article PMC3411786 come the findings set out here.

Consider “Bacteriorhodopsin T90A, bacterioopsin reconstituted with 13-ethyl retinal (T90A-13E-RET) (Halobacterium salinarum; T90A)”, for which the pKa (as a rule, the negative logarithm of the acid dissociation constant) with Asp85 [1] (setting [3]) is 6.4; with Asp85 [1] (setting [4]) it was 6.7.
As to “Bacteriorhodopsin T90A, bacterioopsin reconstituted with all-trans retinal (T90A-AT) (Halobacterium salinarum; T90A)”, the pKa with Asp85 [1] (setting [3]) is 5.8; with Asp85 [1] (setting [4]), 6.1.
Regarding “Bacteriorhodopsin, wild-type bacterioopsin reconstituted with 13-ethyl retinal (WT-13E-RET) (Halobacterium salinarum)”, the pKa with Asp85 [2] (setting [3]) is reported as 4.5; in the data set with Asp85 [2] (setting [4]) it was 4.7.
Taken in the same sequence, the figures for “Bacteriorhodopsin, wild-type bacterioopsin reconstituted with all-trans retinal (WT-AT) (Halobacterium salinarum)” were 3.9 and 4.6.
